Assay results published in article PMC10397247.

Legend:
4H2283-AA = biological target: T1, 4H2283-AA; assay: two-hybrid library CCmax;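 further: natural log of median RNA to DNA barcode read ratio; higher means stronger binding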
T1 chain: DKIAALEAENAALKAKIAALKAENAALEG

4H3709-AA = biological target: T2, 4H3709-AA; assay: two-hybrid library CCmax; conditions: mean of both orientations;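 further: natural log of median RNA to DNA barcode read ratio; higher means stronger binding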
T2 chain: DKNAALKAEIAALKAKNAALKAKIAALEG

4H391-AA = biological target: T3, 4H391-AA; assay: two-hybrid library CCmax; conditions: mean of both orientations;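 further: natural log of median RNA to DNA barcode read ratio; higher means stronger binding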
T3 chain: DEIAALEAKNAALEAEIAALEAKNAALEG

4H2948-AA = biological target: T4, 4H2948-AA; assay: two-hybrid library CCmax; conditions: mean of both orientations;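 further: natural log of median RNA to DNA barcode read ratio; higher means stronger binding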
T4 chain: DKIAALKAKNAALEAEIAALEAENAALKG

4H2991-AA = biological target: T5, 4H2991-AA; assay: two-hybrid library CCmax; conditions: mean of both orientations
T5 chain: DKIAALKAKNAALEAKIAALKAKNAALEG

4H3029-AA = biological target: T6, 4H3029-AA; assay: two-hybrid library CCmax; conditions: mean of both orientations
T6 chain: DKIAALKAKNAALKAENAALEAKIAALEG

4H3121-AA = biological target: T7, 4H3121-AA; assay: two-hybrid library CCmax; conditions: mean of both orientations
T7 chain: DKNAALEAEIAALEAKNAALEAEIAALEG

4H656-AA = biological target: T8, 4H656-AA; assay: two-hybrid library CCmax; conditions: mean of both orientations
T8 chain: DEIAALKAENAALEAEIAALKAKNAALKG

4H3939-AA = biological target: T9, 4H3939-AA; assay: two-hybrid library CCmax; conditions: mean of both orientations
T9 chain: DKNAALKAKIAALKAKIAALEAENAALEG

4H2713-AA = biological target: T10, 4H2713-AA; assay: two-hybrid library CCmax; conditions: mean of both orientations
T10 chain: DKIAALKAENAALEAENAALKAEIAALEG

4H428-AA = biological target: T11, 4H428-AA; assay: two-hybrid library CCmax; conditions: mean of both orientations
T11 chain: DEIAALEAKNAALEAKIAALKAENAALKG

4H3446-AA = biological target: T12, 4H3446-AA; assay: two-hybrid library CCmax; conditions: mean of both orientations
T12 chain: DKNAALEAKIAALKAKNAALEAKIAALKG

4H3102-AA = biological target: T13, 4H3102-AA; assay: two-hybrid library CCmax; conditions: mean of both orientations
T13 chain: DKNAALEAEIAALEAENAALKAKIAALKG

4H971-AA = biological target: T14, 4H971-AA; assay: two-hybrid library CCmax; conditions: mean of both orientations
T14 chain: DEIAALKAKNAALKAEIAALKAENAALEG

4H478-AA = biological target: T15, 4H478-AA; assay: two-hybrid library CCmax; conditions: mean of both orientations
T15 chain: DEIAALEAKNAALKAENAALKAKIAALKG

4H3628-AA = biological target: T16, 4H3628-AA; assay: two-hybrid library CCmax; conditions: mean of both orientations
T16 chain: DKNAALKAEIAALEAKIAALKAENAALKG

4H675-AA = biological target: T17, 4H675-AA; assay: two-hybrid library CCmax; conditions: mean of both orientations
T17 chain: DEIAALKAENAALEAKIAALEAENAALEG

4H497-AA = biological target: T18, 4H497-AA; assay: two-hybrid library CCmax; conditions: mean of both orientations
T18 chain: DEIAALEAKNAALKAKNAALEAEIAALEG

4H3591-AA = biological target: T19, 4H3591-AA; assay: two-hybrid library CCmax; conditions: mean of both orientations
T19 chain: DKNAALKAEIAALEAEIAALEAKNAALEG

4H3666-AA = biological target: T20, 4H3666-AA; assay: two-hybrid library CCmax; conditions: mean of both orientations
T20 chain: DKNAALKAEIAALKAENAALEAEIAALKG

4H2742-AA = biological target: T21, 4H2742-AA; assay: two-hybrid library CCmax; conditions: mean of both orientations
T21 chain: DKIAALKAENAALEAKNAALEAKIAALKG

4H3920-AA = biological target: T22, 4H3920-AA; assay: two-hybrid library CCmax; conditions: mean of both orientations
T22 chain: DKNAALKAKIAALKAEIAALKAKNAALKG

4H3417-AA = biological target: T23, 4H3417-AA; assay: two-hybrid library CCmax; conditions: mean of both orientations
T23 chain: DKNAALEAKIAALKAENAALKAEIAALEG

4H3066-AA = biological target: T24, 4H3066-AA; assay: two-hybrid library CCmax; conditions: mean of both orientations
T24 chain: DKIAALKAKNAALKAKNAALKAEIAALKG

4H850-bH = biological target: T25, 4H850-bH; assay: two-hybrid library CCNG1
T25 chain: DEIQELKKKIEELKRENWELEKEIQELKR

4H584-bH = biological target: T26, 4H584-bH; assay: two-hybrid library CCNG1
T26 chain: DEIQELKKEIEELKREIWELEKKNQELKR

4H570-bH = biological target: T27, 4H570-bH; assay: two-hybrid library CCNG1
T27 chain: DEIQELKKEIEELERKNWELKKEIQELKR

4H3817-bH = biological target: T28, 4H3817-bH; assay: two-hybrid library CCNG1
T28 chain: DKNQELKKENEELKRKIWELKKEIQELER

4H906-bH = biological target: T29, 4H906-bH; assay: two-hybrid library CCNG1
T29 chain: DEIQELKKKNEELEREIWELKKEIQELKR

4H3638-bH = biological target: T30, 4H3638-bH; assay: two-hybrid library CCNG1
T30 chain: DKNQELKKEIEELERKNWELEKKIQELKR

4H619-bH = biological target: T31, 4H619-bH; assay: two-hybrid library CCNG1
T31 chain: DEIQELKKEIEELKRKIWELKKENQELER

4H3974-bH = biological target: T32, 4H3974-bH; assay: two-hybrid library CCNG1
T32 chain: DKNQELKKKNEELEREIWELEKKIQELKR

O9 = biological target: T33, O9; assay: two-hybrid library CC0; conditions: mean of both orientations
T33 chain: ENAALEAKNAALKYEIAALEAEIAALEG

O6 = biological target: T34, O6; assay: two-hybrid library CC0; conditions: mean of both orientations
T34 chain: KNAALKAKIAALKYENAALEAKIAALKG

O7 = biological target: T35, O7; assay: two-hybrid library CC0; conditions: mean of both orientations
T35 chain: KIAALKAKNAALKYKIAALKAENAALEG

O8 = biological target: T36, O8; assay: two-hybrid library CC0; conditions: mean of both orientations
T36 chain: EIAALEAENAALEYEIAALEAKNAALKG

P9SHb = biological target: T37, P9SHb; assay: two-hybrid library CCNG1
T37 chain: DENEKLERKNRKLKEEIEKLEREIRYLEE

P8SHb = biological target: T38, P8SHb; assay: two-hybrid library CCNG1
T38 chain: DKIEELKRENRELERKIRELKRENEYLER

B1: 4H2283-AA (peptide)
chain: DKIAALEAENAALKAKIAALKAENAALEG
- interaction score (4H2283-AA): 1.25
- interaction score (4H3709-AA): -1.11
- interaction score (4H391-AA): -0.595
- interaction score (4H2948-AA): 0.785
- interaction score (4H2991-AA): -1.95
- interaction score (4H3029-AA): -1.74
- interaction score (4H3121-AA): -0.934
- interaction score (4H656-AA): 1.84
- interaction score (4H3939-AA): -1.94
- interaction score (4H2713-AA): -1.19
- interaction score (4H428-AA): -0.691
- interaction score (4H3446-AA): -1.15
- interaction score (4H3102-AA): 0.17
- interaction score (4H971-AA): -0.878
- interaction score (4H478-AA): -1.52
- interaction score (4H3628-AA): -1.32
- interaction score (4H675-AA): -0.967
- interaction score (4H497-AA): -1.45
- interaction score (4H3591-AA): -1.46
- interaction score (4H3666-AA): -0.868
- interaction score (4H2742-AA): -1.21
- interaction score (4H3920-AA): -1.54
- interaction score (4H3417-AA): 1.63
- interaction score (4H3066-AA): -1.63

B2: 4H3638-bH (peptide)
chain: DKNQELKKEIEELERKNWELEKKIQELKR
- interaction score (4H850-bH): 1.04
- interaction score (4H584-bH): -0.722
- interaction score (4H570-bH): -0.4
- interaction score (4H3817-bH): -0.0824
- interaction score (4H906-bH): -0.762
- interaction score (4H3638-bH): -1.34
- interaction score (4H619-bH): -1.47
- interaction score (4H3974-bH): -0.916

B3: O6 (peptide)
chain: KNAALKAKIAALKYENAALEAKIAALKG
- interaction score (O9): -2.41
- interaction score (O6): -2.7
- interaction score (O7): -2.72
- interaction score (O8): -1.78

B4: P8SHb (peptide)
chain: DKIEELKRENRELERKIRELKRENEYLER
- interaction score (P9SHb): 0.191
- interaction score (P8SHb): -0.644
